± gives the uncertainty stated by the source.
B1: 1-phosphatidylinositol 4,5-bisphosphate phosphodiesterase gamma-2, residues 772 to 827; numbered along this chain, P16885 (parent)
chain: RTVKALYDYKAKRSDELSFCRGALIHNVSKEPGGWWKGDYGTRIQQYFPSNYVEDI

Variants of: B1
Assay: abundance fitness (aPCA) (normalised: wild type 0, dead -1); higher = more abundant; growth selection in yeast, the domain comes from the species named
Conditions: Homo sapiens

Variant | abundance fitness
RTVKALYDYKAKRSDELSFSRGALIHNVSKEPGGWWKGDYGTRIQQYFPSNYVEDI | 0.008 ± 0.075
RTVKALYDYKAKRSDELSFFRGALIHNVSKEPGGWWKGDYGTRIQQYFPSNYVEDI | -0.17 ± 0.11
RTVKALYDYKAKRSDELSFWRGALIHNVSKEPGGWWKGDYGTRIQQYFPSNYVEDI | -0.446 ± 0.1
RTVKALYDYKAKRSDELSFRRGALIHNVSKEPGGWWKGDYGTRIQQYFPSNYVEDI | 0.11 ± 0.055
RTVKALYDYKAKRSDELSFNRGALIHNVSKEPGGWWKGDYGTRIQQYFPSNYVEDI | -0.037 ± 0.15
RTVKALYDYKAKRSDELSFARGALIHNVSKEPGGWWKGDYGTRIQQYFPSNYVEDI | 0.004 ± 0.06
RTVKALYDYKAKRSDELSFVRGALIHNVSKEPGGWWKGDYGTRIQQYFPSNYVEDI | 0.017 ± 0.051
RTVKALYDYKAKRSDVLSFCRGALIHNVSKEPGGWWKGDYGTRIQQYFPSNYVEDI | -0.612 ± 0.074
RTVKALYDYKAKRSDKLSFCRGALIHNVSKEPGGWWKGDYGTRIQQYFPSNYVEDI | -0.822 ± 0.13
RTVKALYDYKAKRSDQLSFCRGALIHNVSKEPGGWWKGDYGTRIQQYFPSNYVEDI | -0.168 ± 0.13
RTVKALYDYKAKRSDSLSFCRGALIHNVSKEPGGWWKGDYGTRIQQYFPSNYVEDI | -0.618 ± 0.21
RTVKALYDYKAKRSDHLSFCRGALIHNVSKEPGGWWKGDYGTRIQQYFPSNYVEDI | -0.201 ± 0.38
RTVKALYDYKAKRSDLLSFCRGALIHNVSKEPGGWWKGDYGTRIQQYFPSNYVEDI | -0.486 ± 0.14
RTVKALYDYKAKRSDGLSFCRGALIHNVSKEPGGWWKGDYGTRIQQYFPSNYVEDI | -0.354 ± 0.069
RTVKALYDYKAKRSDALSFCRGALIHNVSKEPGGWWKGDYGTRIQQYFPSNYVEDI | -0.456 ± 0.092
RTVKALYDYKAKRSDTLSFCRGALIHNVSKEPGGWWKGDYGTRIQQYFPSNYVEDI | -0.442 ± 0.2
RTVKALYDYKAKRSDWLSFCRGALIHNVSKEPGGWWKGDYGTRIQQYFPSNYVEDI | -1.02 ± 0.47
RTVKALYDYKAKRSDMLSFCRGALIHNVSKEPGGWWKGDYGTRIQQYFPSNYVEDI | -0.633 ± 0.096
RTVKALYDYKAKRSDRLSFCRGALIHNVSKEPGGWWKGDYGTRIQQYFPSNYVEDI | -0.528 ± 0.097
RTVKALYDYKAKRSDELSFCKGALIHNVSKEPGGWWKGDYGTRIQQYFPSNYVEDI | -0.247 ± 0.28
RTVKALYDYKAKRSDELSFCLGALIHNVSKEPGGWWKGDYGTRIQQYFPSNYVEDI | -0.79 ± 0.19
RTVKALYDYKAKRSDELSFCVGALIHNVSKEPGGWWKGDYGTRIQQYFPSNYVEDI | -0.122 ± 0.088
RTVKALYDYKAKRSDELSFCSGALIHNVSKEPGGWWKGDYGTRIQQYFPSNYVEDI | -0.285 ± 0.14
RTVKALYDYKAKRSDELSFCFGALIHNVSKEPGGWWKGDYGTRIQQYFPSNYVEDI | -0.235 ± 0.19

Variant | abundance fitness
RTVKALYDYKAKRSDELSFCNGALIHNVSKEPGGWWKGDYGTRIQQYFPSNYVEDI | -0.086 ± 0.36
RTVKALYDYKAKRSDELSFCRKALIHNVSKEPGGWWKGDYGTRIQQYFPSNYVEDI | -0.203 ± 0.34
RTVKALYDYKAKRSDELSFCRCALIHNVSKEPGGWWKGDYGTRIQQYFPSNYVEDI | -0.86 ± 0.36
RTVKALYDYKAKRSDELSFCRLALIHNVSKEPGGWWKGDYGTRIQQYFPSNYVEDI | -1.14 ± 0.32
RTVKALYDYKAKRSDELSFCRFALIHNVSKEPGGWWKGDYGTRIQQYFPSNYVEDI | -0.802 ± 0.21
RTVKALYDYKAKRSDELSFCRMALIHNVSKEPGGWWKGDYGTRIQQYFPSNYVEDI | -0.52 ± 0.23
RTVKALYDYKAKRSDELSFCRDALIHNVSKEPGGWWKGDYGTRIQQYFPSNYVEDI | -0.236 ± 0.086
RTVKALYDYKAKRSDELSFCRRALIHNVSKEPGGWWKGDYGTRIQQYFPSNYVEDI | -0.775 ± 0.083
RTVKALYDYKAKRSDELSFCRHALIHNVSKEPGGWWKGDYGTRIQQYFPSNYVEDI | -0.704 ± 0.34
RTVKALYDYKAKRSDELSFCRPALIHNVSKEPGGWWKGDYGTRIQQYFPSNYVEDI | -0.688 ± 0.28
RTVKALYDYKAKRSDELSFCRNALIHNVSKEPGGWWKGDYGTRIQQYFPSNYVEDI | -0.364 ± 0.26
RTVKALYDYKAKRSDELSFCREALIHNVSKEPGGWWKGDYGTRIQQYFPSNYVEDI | -0.418 ± 0.19
RTVKALYDYKAKRSDELSLCRGALIHNVSKEPGGWWKGDYGTRIQQYFPSNYVEDI | -0.779 ± 0.2
RTVKALYDYKAKRSDELSQCRGALIHNVSKEPGGWWKGDYGTRIQQYFPSNYVEDI | -0.721 ± 0.34
RTVKALYDYKAKRSDELSACRGALIHNVSKEPGGWWKGDYGTRIQQYFPSNYVEDI | -0.758 ± 0.14
RTVKALYDYKAKRSDELSPCRGALIHNVSKEPGGWWKGDYGTRIQQYFPSNYVEDI | -0.536 ± 0.21
RTVKALYDYKAKRSDELSKCRGALIHNVSKEPGGWWKGDYGTRIQQYFPSNYVEDI | -0.558 ± 0.42
RTVKALYDYKAKRSDELSGCRGALIHNVSKEPGGWWKGDYGTRIQQYFPSNYVEDI | -0.604 ± 0.23
RTVKALYDYKAKRSDELSDCRGALIHNVSKEPGGWWKGDYGTRIQQYFPSNYVEDI | -0.685 ± 0.13
RTVKALYDYKAKRSDELSRCRGALIHNVSKEPGGWWKGDYGTRIQQYFPSNYVEDI | -0.966 ± 0.17
RTVKALYDYKAKRSDELSVCRGALIHNVSKEPGGWWKGDYGTRIQQYFPSNYVEDI | -0.886 ± 0.1
RTVKALYDYKAKRSDELSCCRGALIHNVSKEPGGWWKGDYGTRIQQYFPSNYVEDI | -0.64 ± 0.34
RTVKALYDYKAKRSDELSECRGALIHNVSKEPGGWWKGDYGTRIQQYFPSNYVEDI | -0.711 ± 0.47

From the Human Domainome abundance scans (Beltran et al. 2025)
